{"source": "paper PMC3460625", "about": "(PLoS Pathogens, 2012)", "binders": {"B1": {"name": "Rae1 (endogenous) (natural protein, human (endogenous in HEK 293 and HeLa), UniProt P78406 1-368, looked up)", "chain": "MSLFGTTSGFGTSGTSMFGSATTDNHNPMKDIEVTSSPDDSIGCLSFSPPTLPGNFLIAGSWANDVRCWEVQDSGQTIPKAQQMHTGPVLDVCWSDDGSKVFTASCDKTAKMWDLSSNQAIQIAQHDAPVKTIHWIKAPNYSCVMTGSWDKTLKFWDTRSSNPMMVLQLPERCYCADVIYPMAVVATAERGLIVYQLENQPSEFRRIESPLKHQHRCVAIFKDKQNKPTGFALGSIEGRVAIHYINPPNPAKDNFTFKCHRSNGTNTSAPQDIYAVNGIAFHPVHGTLATVGSDGRFSFWDKDARTKLKTSEQLDQPISACCFNHNGNIFAYASSYDWSKGHEFYNPQKKNYIFLRNAAEELKPRNKK", "notes": "also called host Rae1; cellular Rae1"}}, "target": "T1, Nup98 (endogenous) (human (endogenous in HEK 293 and HeLa), UniProt P52948 1-880)", "T1 construct": "also called nucleoporin Nup98", "T1 sequence (looked up)": "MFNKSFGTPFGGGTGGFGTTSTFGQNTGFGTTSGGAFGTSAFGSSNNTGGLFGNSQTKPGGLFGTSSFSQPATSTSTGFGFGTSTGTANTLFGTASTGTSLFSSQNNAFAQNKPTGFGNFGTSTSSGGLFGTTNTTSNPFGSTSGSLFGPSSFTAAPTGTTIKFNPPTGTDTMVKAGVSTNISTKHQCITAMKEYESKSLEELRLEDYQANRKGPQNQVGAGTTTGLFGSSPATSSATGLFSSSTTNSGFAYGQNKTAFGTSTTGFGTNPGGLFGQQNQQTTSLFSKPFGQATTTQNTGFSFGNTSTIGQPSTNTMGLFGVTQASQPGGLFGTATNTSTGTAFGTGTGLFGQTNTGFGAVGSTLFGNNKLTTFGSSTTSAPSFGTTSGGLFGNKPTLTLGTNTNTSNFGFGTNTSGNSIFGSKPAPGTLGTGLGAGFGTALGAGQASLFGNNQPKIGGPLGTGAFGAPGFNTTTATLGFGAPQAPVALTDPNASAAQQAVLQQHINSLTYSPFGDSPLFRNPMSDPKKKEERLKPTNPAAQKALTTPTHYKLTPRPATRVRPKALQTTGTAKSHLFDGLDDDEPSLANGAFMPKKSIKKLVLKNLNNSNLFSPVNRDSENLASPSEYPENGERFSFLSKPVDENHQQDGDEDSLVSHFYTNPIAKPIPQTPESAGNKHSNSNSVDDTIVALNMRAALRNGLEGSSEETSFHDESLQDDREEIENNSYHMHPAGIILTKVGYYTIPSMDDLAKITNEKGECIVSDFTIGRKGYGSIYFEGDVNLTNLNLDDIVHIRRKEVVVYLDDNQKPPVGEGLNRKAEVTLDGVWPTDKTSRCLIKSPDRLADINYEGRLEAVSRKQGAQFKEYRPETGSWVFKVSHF", "experiment": "SEC + other: sucrose gradient sedimentation", "conditions": "partners not purified"}
{"binder": "B1", "values": [{"measurement": "stoichiometry N", "result": 1}]}
